Starred links: 1 amine or outer side, 2 acyl side, 3 side chain; linkers in the order of their positions; H or OH if unused. Positions of bridges follow the written chain, without caps; N, C: chain ends. Non-standard residues stand in square brackets, D forms with d. Primed or numbered codes have the meaning given here. No end group written: not given here. O2beY = O-(2-bromoethyl)-tyrosine (p-2beF), reacts with Cys to form a thioether, O=C([C@H](Cc1ccc(OCCBr)cc1)N[*:1])[*:2]; pCaaF″ = p-(2-chloro-acetamido)-phenylalanine, thioether-linked to Cys, O=C(C[*:3])Nc1ccc(C[C@H](N[*:1])C(=O)[*:2])cc1; pCaaF = p-(2-chloroacetamido)-phenylalanine, O=C(CCl)Nc1ccc(C[C@H](N[*:1])C(=O)[*:2])cc1
How the values were obtained:
streptavidin [1] = target: T1, streptavidin (UniProt P22629 37-163, limits assumed); assay: plate binding assay: streptavidin-coated plate, FLAG-tagged binder titrated, HRP anti-FLAG detection, 1:1 isotherm fit
T1 sequence (P22629 37-163 limits assumed): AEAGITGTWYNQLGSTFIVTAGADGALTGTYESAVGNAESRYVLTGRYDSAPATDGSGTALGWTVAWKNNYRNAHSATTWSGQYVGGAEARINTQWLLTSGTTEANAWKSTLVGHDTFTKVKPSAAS
Source text: The resulting cyclopeptibody (called Strep-m3-Tras-Fc) was expressed, purified, and characterized as described in Example 4. This construct was confirmed to contain the cyclic peptide constrained via O2beY/Cys thioether (i/i-8) linkage, where ‘i’ indicates the position of the non-canonical amino acid O2beY (also refereed to herein as p-2beF). The cyclopeptibody Strep-m3-Tras-Fc was then characterized for its streptavidin binding affinity using a reported in vitro binding assay (Owens et al, ACS Cent Sci. (2020); 6(3):368-381).
Streptavidin Binding Assay. For the streptavidin binding assays, streptavidin-coated plates (Sigma-Aldrich) were used. […] After washing three times with wash buffer, 100 μL of 2.2 mM o-phenylenediamine dihydrochloride, 4.2 mM urea hydrogen peroxide, 100 mM dibasic sodium phosphate, and 50 mM sodium citrate, pH 5.0, were added to each well, followed by measurement of the absorbance at 450 nm after 10-20 min using a Tecan Infinite 1000 plate reader. Equilibrium dissociation constants (Kp) were determined by fitting the dose-response curves to a 1:1 binding isotherm equation via nonlinear regression. using SigmaPlot. Mean values and standard deviations were calculated from experiments performed in triplicate.

Sonic Hedgehog (Shh) = Sonic Hedgehog (Shh) (human, UniProt Q15465 24-197, limits assumed); assay: plate binding assay: immobilised Shh, FLAG-tagged binder titrated, HRP anti-FLAG detection
streptavidin [2] = target: T1, streptavidin; assay: plate binding assay on streptavidin-coated plates
[3] = target: T2, Kelch-like ECH-associated protein 1 (Keap1) (human, UniProt Q14145 321-609, limits assumed); assay: plate binding assay with immobilised Keap1
T2 sequence (Q14145 321-609 limits assumed): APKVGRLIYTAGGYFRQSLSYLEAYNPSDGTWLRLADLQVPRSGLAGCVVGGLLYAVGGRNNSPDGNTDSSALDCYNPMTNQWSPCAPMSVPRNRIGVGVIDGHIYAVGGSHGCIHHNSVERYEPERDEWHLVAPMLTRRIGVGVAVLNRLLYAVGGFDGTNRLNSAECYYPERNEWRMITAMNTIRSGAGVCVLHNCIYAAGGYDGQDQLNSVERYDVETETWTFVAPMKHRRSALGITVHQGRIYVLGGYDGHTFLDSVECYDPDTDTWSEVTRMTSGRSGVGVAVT
Protocol: Keap1 Binding Assay. For the Keap1 binding assay, Keap1 was immobilized on microtiter plates by incubating 100 μL of a 4 μM protein solution in PBS buffer overnight at 4° C., followed by washing (3×150 μL of PBS with 0.5% Tween-20) and blocking with 0.5% bovine serum albumin in PBS for 1.5 h at room temperature. After washing, each well was incubated with 100 μL of purified FLAG-tagged peptide at varying concentrations for 1 hour at room temperature. After washing three times with wash buffer, each well was incubated with 100 μL of 1:2500 dilution of HRP-conjugate mouse anti-FLAG polyclonal antibody (Sigma-Aldrich) for 1 hour at room temperature. After three washing steps with wash buffer, 100 μL of 2.2 mM o-phenylenediamine dihydrochloride, 4.2 mM urea hydrogen peroxide, 100 mM dibasic sodium phosphate, and 50 mM sodium citrate, pH 5.0, were added to each well, followed by measurement of the absorbance at 450 nm after 10-20 min using a Tecan Infinite 1000 plate reader. Equilibrium dissociation constants (KD) were determined by fitting the dose-response curves to a 1:1 binding isotherm equation via nonlinear regression using SigmaPlot. Mean values and standard deviations were calculated from experiments performed in triplicate. […]

[4] = target: T2, Kelch-like ECH-associated protein 1 …; assay: plate binding assay: immobilised Keap1, FLAG-tagged binder titrated, HRP anti-FLAG detection, 1:1 isotherm fit
Protocol: (§1) Streptavidin Binding Assay. For the streptavidin binding assays, streptavidin-coated plates (Sigma-Aldrich) were used. For the Keap1, Shh and PD-L1 binding assay, target protein was immobilized on microtiter plates by incubating 100 μL of a 4 μM protein solution in PBS buffer overnight at 4° C., followed by decanting the protein solution and blocking with 0.5% bovine serum albumin in PBS for 2 h at room temperature. After washing (3×150 μL of PBS with 0.05% Tween-20), each well was incubated with 100 μL of purified FLAG-tagged cyclopeptibody at varying concentrations for 1 hour at room temperature. After washing three times with wash buffer, each well was incubated with 100 μL of 1:2500 dilution of HRP-conjugate mouse anti-FLAG polyclonal antibody (Sigma-Aldrich) for 1 hour at room temperature. After washing three times with wash buffer, 100 μL of 2.2 mM o-phenylenediamine dihydrochloride, 4.2 mM urea hydrogen peroxide, 100 mM dibasic sodium phosphate, and 50 mM sodium citrate, pH 5.0, were added to each well, followed by measurement of the absorbance at 450 nm after 10-20 min using a Tecan Infinite 1000 plate reader. Equilibrium dissociation constants (Kp) were determined by fitting the dose-response curves to a 1:1 binding isotherm equation via nonlinear regression. using SigmaPlot. Mean values and standard deviations were calculated from experiments performed in triplicate.

[5] = target: T3, PD-L1 (Programmed Death-Ligand 1), recombinant, His-tagged (human, UniProt Q9NZQ7 18-134, limits assumed); assay: plate binding assay with immobilised PD-L1
T3 construct: Immobilised on microtiter plates
T3 sequence (Q9NZQ7 18-134 limits assumed): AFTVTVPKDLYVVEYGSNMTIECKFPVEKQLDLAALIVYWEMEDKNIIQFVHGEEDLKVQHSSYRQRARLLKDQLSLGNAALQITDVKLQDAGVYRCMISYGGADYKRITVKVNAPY
Protocol: as §1, with “After” for “Streptavidin Binding Assay. For the streptavidin binding assays, streptavidin-coated plates (Sigma-Aldrich) were used. For the Keap1, Shh and PD-L1 binding assay, target protein was immobilized on microtiter plates by incubating 100 μL of a 4 μM protein solution in PBS buffer overnight at 4° C., followed by decanting the protein solution and blocking with 0.5% bovine serum albumin in PBS for 2 h at room temperature. After”
To illustrate this aspect of the invention, a series of PD-L1 targeting cyclopeptibodies were prepared by introducing variable spacer sequences between the cyclic peptide and Fc domain in the PD-L1-targeting cyclopeptibody cRK10-Tras-Fc (Table 1, Entries 31-34; FIG. 20). The spacer sequences included a more flexible (-GSGSGS-), more rigid (-PAPAP-; -EAAAK-) or longer linker (Q12) compared to the exa-glutamine (Q6) spacer sequence in cyclopeptibody cRK10-Tras-Fc.

[6] = target: T3, PD-L1 (Programmed Death-Ligand 1), …; assay: plate binding assay: immobilised PD-L1, FLAG-tagged binder titrated, HRP anti-FLAG detection
Protocol: as §1

B1: cyclic peptide Strep-m3 alone (as CBD fusion) (peptide)
chain: SCWWHPQGD[O2beY]
modifications: thioether 2-10; also: as CBD fusion
- Kd (streptavidin [1]): 50 nM

B2: cyclic peptide L2-m5 alone (as CBD fusion) (peptide)
chain: TLSW[O2beY]EAMDMCTSS
modifications: thioether 5-11; also: as CBD fusion
- Kd (Sonic Hedgehog (Shh)): 388 nM

B3: Strep-m3-Tras-Fc (Fc fusion)
chain: DYKDDDDKGSGSSCWWHPQGD[O2beY]QQQQQQ-{Fc-H6}
modifications: thioether 14-22; also: dimeric through the Fc
notes: Cyclic peptide fused through a (Gln)6 spacer to human IgG1 Fc; dimeric through the Fc; made in E. coli; also called FLAG-(GS)2-SCWWHPQGDZ-(Q)6-(Fc)^1-H6
- fold improved affinity against the same cyclic peptide fused to CBD (streptavidin [2]): 1.3 fold
- Kd (streptavidin [1]): 37 nM

B4: KKD-m1-Tras-Fc (Fc fusion)
chain: DYKDDDDKGSGS[O2beY]DSETGECQQQQQQ-{Fc-H6}
modifications: thioether 13-20; also: dimeric through the Fc
notes: Cyclic peptide fused through a (Gln)6 spacer to human IgG1 Fc; dimeric through the Fc; made in E. coli; also called FLAG-(GS)2-ZDSETGEC-(Q)6-(Fc)^1-H6
- fold improved affinity against the same cyclic peptide fused to CBD [3]: > 20 fold
- Kd [4]: 4 nM

B5: cyclic peptide KKD-m1 alone (as CBD fusion) (peptide)
chain: [O2beY]DSETGEC
modifications: thioether 1-8; also: as CBD fusion
- Kd [4]: 85 nM

B6: cyclic peptide cRK10 (pCaaF) (peptide)
chain: TYLCGAISLA[pCaaF]KAQIKESL
modifications: thioether 4-11
- Kd [5]: 13000 nM

B7: FLAG-cRK10-Q12-Tras-Fc-His (Fc fusion)
chain: DYKDDDDKGSGSTYLCGAISLA[pCaaF]KAQIKESLQQQQQQQQQQQQ-{Fc-H6}
modifications: thioether 16-23
notes: Spacer variant of cRK10-Tras-Fc (Q12); also called FLAG-(GS)2-TYLCGAISLAZKAQIKESL-(Q)12-(Fc)^1-H6
- Kd [5]: 237 nM

B8: FLAG-KKD-m1-KKD-m1-Tras-Fc-His (Fc fusion)
chain: DYKDDDDKGSGSYDSETGECGSGSENLYFQGSGSYDSETGECIEGRGSGS
modifications: thioether (positions not given here); not fully specified (residues 13, 35, C-terminus, bridges); also: two O2beY, each thioether-linked to Cys of its own cyclic peptide, places them at C20 and L27
notes: Two copies of the KKD-m1 cyclic peptide in tandem on each Fc chain; also called polyvalent Keap1-targeting cyclopeptibody
- Kd [3]: 45 nM

B9: cRK10 (pCaaF)-Tras-Fc (Fc fusion)
chain: DYKDDDDKGSGSTYLCGAISLA[pCaaF]KAQIKESLQQQQQQ-{Fc-H6}
modifications: thioether 16-23
notes: also called cRK10-Tras-Fc; RK10-Tras-Fc-His
- Kd [5]: 42 nM
- fold higher PD-L1 binding affinity against FLAG-cRK10-Q12-Tras-Fc-His [5]: 6 fold
- fold higher binding affinity against the cyclic peptide cRK10 [5]: 300 fold
- Kd [6]: 40 nM

B10: cyclic peptide cCLP003 (pCaaF) (peptide)
chain: WHFS[pCaaF″]NWRWLPC
modifications: thioether 5-12; not fully specified
- Kd [5]: ~10000 nM
- fold higher affinity against the linear CLP003 peptide [5]: ~40 fold

B11: FLAG-Strep-m3-Strep-m3-Tras-Fc-His (Fc fusion)
chain: DYKDDDDKGSGSSCWWHPQGD[O2beY]GSGSENLYFQGSGSSCWWHPQGD[O2beY]IEGRGSGS-{Fc-His}
modifications: thioether 14-22, 38-46; not fully specified; also: second O2beY at Y30, thioether-linked to Cys of its own cyclic peptide
notes: Two copies of the Strep-m3 cyclic peptide in tandem on each Fc chain; also called polyvalent streptavidin-targeting cyclopeptibody
- Kd (streptavidin [2]): 56 nM
